From IntAct's records for PubMed 21152186 come the findings set out here.

B1: Matrix metalloproteinase-28 (Homo sapiens), Q9H239 (parent)
chain: MVARVGLLLRALQLLLWGHLDAQPAERGGQELRKEAEAFLEKYGYLNEQVPKAPTSTRFSDAIRAFQWVSQLPVSGVLDRATLRQMTRPRCGVTDTNSYAAWAERISDLFARHRTKMRRKKRFAKQGNKWYKQHLSYRLVNWPEHLPEPAVRGAVRAAFQLWSNVSALEFWEAPATGPADIRLTFFQGDHNDGLGNAFDGPGGALAHAFLPRRGEAHFDQDERWSLSRRRGRNLFVVLAHEIGHTLGLTHSPAPRALMAPYYKRLGRDALLSWDDVLAVQSLYGKPLGGSVAVQLPGKLFTDFETWDSYSPQGRRPETQGPKYCHSSFDAITVDRQQQLYIFKGSHFWEVAADGNVSEPRPLQERWVGLPPNIEAAAVSLNDGDFYFFKGGRCWRFRGPKPVWGLPQLCRAGGLPRHPDAALFFPPLRRLILFKGARYYVLARGGLQVEPYYPRSLQDWGGIPEEVSGALPRPDGSIIFFRDDRYWRLDQAKLQATTSGRWATELPWMGCWHANSGSALF

Variants of B1 are the subject of the experiment. To be noted: with furin_human FURIN.
MVARVGLLLRALQLLLWGHLDAQPAERGGQELRKEAEAFLEKYGYLNEQVPKAPTSTRFSDAIRAFQWVSQLPVSGVLDRATLRQMTRPRCGVTDTNSYAAWAERISDLFARHRTKMRAAKRFAKQGNKWYKQHLSYRLVNWPEHLPEPAVRGAVRAAFQLWSNVSALEFWEAPATGPADIRLTFFQGDHNDGLGNAFDGPGGALAHAFLPRRGEAHFDQDERWSLSRRRGRNLFVVLAHEIGHTLGLTHSPAPRALMAPYYKRLGRDALLSWDDVLAVQSLYGKPLGGSVAVQLPGKLFTDFETWDSYSPQGRRPETQGPKYCHSSFDAITVDRQQQLYIFKGSHFWEVAADGNVSEPRPLQERWVGLPPNIEAAAVSLNDGDFYFFKGGRCWRFRGPKPVWGLPQLCRAGGLPRHPDAALFFPPLRRLILFKGARYYVLARGGLQVEPYYPRSLQDWGGIPEEVSGALPRPDGSIIFFRDDRYWRLDQAKLQATTSGRWATELPWMGCWHANSGSALF [R119A;K120A]: the “effect of a mutation on the interaction” value was “with no effect”.

Regarding MVARVGLLLRALQLLLWGHLDAQPAERGGQELRKEAEAFLEKAAYLNEQVPKAPTSTRFSDAIRAFQWVSQLPVSGVLDRATLRQMTRPRCGVTDTNSYAAWAERISDLFARHRTKMRRKKRFAKQGNKWYKQHLSYRLVNWPEHLPEPAVRGAVRAAFQLWSNVSALEFWEAPATGPADIRLTFFQGDHNDGLGNAFDGPGGALAHAFLPRRGEAHFDQDERWSLSRRRGRNLFVVLAHEIGHTLGLTHSPAPRALMAPYYKRLGRDALLSWDDVLAVQSLYGKPLGGSVAVQLPGKLFTDFETWDSYSPQGRRPETQGPKYCHSSFDAITVDRQQQLYIFKGSHFWEVAADGNVSEPRPLQERWVGLPPNIEAAAVSLNDGDFYFFKGGRCWRFRGPKPVWGLPQLCRAGGLPRHPDAALFFPPLRRLILFKGARYYVLARGGLQVEPYYPRSLQDWGGIPEEVSGALPRPDGSIIFFRDDRYWRLDQAKLQATTSGRWATELPWMGCWHANSGSALF [Y43A;G44A], the “effect of a mutation on the interaction” value is given as “with no effect”.

On to MVARVGLLLRALQLLLWGHLDAQPAERGGQELRKEAEAFLEKYGYLNEQVPKAPTSTRFSDAIRAFQWVSQLPVSGVLDRATLRQMTRPRCGVTDTNSYAAWAERISDLFARHRTKMRRKKRFAKQGNKWYKQHLSYRLVNWPEHLPEPAVRGAVRAAFQLWSNVSALEFWEAPATGPADIRLTFFQGDHNDGLGNAFDGPGGALAHAFLPRRGEAHFDQDERWSLSRRRGRNLFVVLAHAIGHTLGLTHSPAPRALMAPYYKRLGRDALLSWDDVLAVQSLYGKPLGGSVAVQLPGKLFTDFETWDSYSPQGRRPETQGPKYCHSSFDAITVDRQQQLYIFKGSHFWEVAADGNVSEPRPLQERWVGLPPNIEAAAVSLNDGDFYFFKGGRCWRFRGPKPVWGLPQLCRAGGLPRHPDAALFFPPLRRLILFKGARYYVLARGGLQVEPYYPRSLQDWGGIPEEVSGALPRPDGSIIFFRDDRYWRLDQAKLQATTSGRWATELPWMGCWHANSGSALF [E241A], for which the “effect of a mutation on the interaction” value is given as “with no effect”.

Turning to MVARVGLLLRALQLLLWGHLDAQPAERGGQELRKEAEAFLEKYGAANEQVPKAPTSTRFSDAIRAFQWVSQLPVSGVLDRATLRQMTRPRCGVTDTNSYAAWAERISDLFARHRTKMRRKKRFAKQGNKWYKQHLSYRLVNWPEHLPEPAVRGAVRAAFQLWSNVSALEFWEAPATGPADIRLTFFQGDHNDGLGNAFDGPGGALAHAFLPRRGEAHFDQDERWSLSRRRGRNLFVVLAHEIGHTLGLTHSPAPRALMAPYYKRLGRDALLSWDDVLAVQSLYGKPLGGSVAVQLPGKLFTDFETWDSYSPQGRRPETQGPKYCHSSFDAITVDRQQQLYIFKGSHFWEVAADGNVSEPRPLQERWVGLPPNIEAAAVSLNDGDFYFFKGGRCWRFRGPKPVWGLPQLCRAGGLPRHPDAALFFPPLRRLILFKGARYYVLARGGLQVEPYYPRSLQDWGGIPEEVSGALPRPDGSIIFFRDDRYWRLDQAKLQATTSGRWATELPWMGCWHANSGSALF [Y45A;L46A], the “effect of a mutation on the interaction” value is on record as “disrupting interaction strength”.
